Assay [1] addresses T1, PACAP38 (Pituitary Adenylate Cyclase-Activating Polypeptide, 38 amino acids) (human, not fully specified; the C-terminal lysine is amidated).
T1 peptide: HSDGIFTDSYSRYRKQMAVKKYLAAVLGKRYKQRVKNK
Briefly: cell-based or functional assay.

Assay [2] has as its target T2, PACAP27 (Pituitary Adenylate Cyclase-Activating Polypeptide, 27 amino acids) (human, the C-terminal leucine is amidated).
T2 peptide: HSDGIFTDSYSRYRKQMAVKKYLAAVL
The experiment in a line: cell-based or functional assay.

For assay [3], the target named is T3, PAC1-R on PAC1-R-expressing PC-12 cells (UniProt P32215 20-523).
T3 construct: whole, on cells; also called PAC1 receptor
T3 sequence (looked up): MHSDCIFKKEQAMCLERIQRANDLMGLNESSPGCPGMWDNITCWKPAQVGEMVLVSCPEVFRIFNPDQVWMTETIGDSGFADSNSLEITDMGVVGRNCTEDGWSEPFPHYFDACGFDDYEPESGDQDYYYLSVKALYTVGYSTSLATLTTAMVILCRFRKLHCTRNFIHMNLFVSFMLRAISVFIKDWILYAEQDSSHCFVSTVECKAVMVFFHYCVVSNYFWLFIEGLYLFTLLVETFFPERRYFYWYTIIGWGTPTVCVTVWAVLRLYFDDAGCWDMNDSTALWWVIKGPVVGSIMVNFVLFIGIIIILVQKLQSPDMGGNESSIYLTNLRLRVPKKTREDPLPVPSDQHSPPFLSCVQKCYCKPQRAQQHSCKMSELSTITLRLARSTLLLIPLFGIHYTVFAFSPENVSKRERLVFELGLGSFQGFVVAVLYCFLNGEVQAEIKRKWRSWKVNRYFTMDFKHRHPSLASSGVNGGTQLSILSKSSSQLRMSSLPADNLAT
The experiment in a line: cell surface binding assay (DELFIA TRF): antibody pre-incubated with PACAP38, added to PAC1-R-expressing PC-12 cells, detected with Eu anti-human IgG. As to the method:
Cells were initially seeded at 1×10⁵ cells/well in a solution of complete RPMI (“cRPMI”: RPMI medium supplemented with 10% sterile heat-inactivated FBS and 1% sterile antibiotic/antimycotic)+10% FBS, and the plates were allowed to incubate overnight at 37° C. On the day of the binding assay, antibodies at an initial concentration of 15 μg/ml were diluted at a 1:3 ratio in DELFIA® binding buffer (50 mM Tris, 150 mM NaCl, 0.1% azide, 2% horse serum) (Perkin-Elmer, Waltham, MA) to a total volume of 60 μL in a separate 96 well round bottom plate. PACAP38 was prepared for the binding assay by diluting it in DELFIA® binding buffer to a concentration of 200 nM, and then 60 μl of the diluted PACAP38 was added to each of the antibody-containing wells to form antibody: antigen complexes. Following addition of PACAP38, the antibody: antigen complexes were incubated at room temperature on a shaker for 1 hour. Separately, the PC-12 cells were prepared for addition of antibody: antigen complexes by washing the cells two times with DELFIA® wash buffer (50 mM Tris, 150 mM NaCl, 0.1% Azide) (Perkin-Elmer, Waltham, MA). After washing the cells two times and following the 1 hour room temperature incubation of the antibody: antigen complexes, 50 μl of the antibody: antigen complex was added to each well containing cells. The mixtures of cells and antibody: antigen complexes were then incubated for 30 minutes at room temperature. Following this 30 minute incubation, each mixture was washed two times with DELFIA® wash buffer (Perkin-Elmer, Waltham, MA).
DELFIA® Europium labeled anti-human IgG detection reagent (Cat #1244-330, Perkin-Elmer, Waltham, MA) was diluted to a concentration of 300 ng/ml in DELFIA® Binding Buffer. Following dilution, 50 μl of the anti-human IgG detection reagent was added to each well containing cells, and a 30 minute incubation at room temperature followed this addition of IgG detection reagent. After completion of the 30 minute room temperature incubation, the cells were then washed two times with DELFIA® wash buffer. Next, 50 μl of DELFIA® Enhancement Solution (Cat #1244-105, Perkin-Elmer, Waltham, MA) was added to each well containing cells for a final 15 minute room temperature incubation with shaking. The plates were then read (TRF, excitation 330 nm, emission 620 nm) on a SPECTRAMAX® (Molecular Devices, Sunnyvale, CA) plate reader.

For assay [4], the target named is T4, VIP (Vasoactive Intestinal Peptide) (human).
T4 construct: also called human VIP
T4 peptide: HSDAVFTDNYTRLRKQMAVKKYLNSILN
The experiment in a line: SPR (ProteOn XPR36), antibody amine-coupled, peptide analyte, 1:1 Langmuir fit.

The target of assay [5] is T1, PACAP38 (Pituitary Adenylate …). The description is as above. As to the method: (§1) Binding affinities of monoclonal antibodies for human PACAP were estimated using SPR on the PROTEON™ XPR36 (Bio-Rad, Hercules, CA). Antibody was immobilized to the surface of general amine coupling (“GLC” or “GLM”) Chips (Bio-Rad, Hercules, CA). […] Antigen (ranging from 1.23 nM to 100 nM) was typically run sequentially with association times of 2-4 minutes and dissociation times of 3-120 minutes grouped with the PROTEON™ Manager Software (v3.1.0.6 (Bio-Rad, Hercules, CA)) and fitted using a 1:1 Langmuir binding model. Surfaces were regenerated between analyte queries using 0.85% Phosphoric Acid.

The target in assay [6] is T2, PACAP27 (Pituitary Adenylate …). The assay is described as above. On the procedure:
as §1

Assay [7] has as its target T1, PACAP38 (Pituitary Adenylate …). The experiment in a line: cell-based or functional assay.
Assay [8] shares this target. Briefly: cell-based or functional assay.
Assay [9] shares this target. Briefly: SPR (ProteOn XPR36), antibody amine-coupled, peptide analyte, 1:1 Langmuir fit. As to the method: (§2) Binding affinities of monoclonal antibodies for human PACAP were estimated using SPR on the PROTEON™ XPR36 (Bio-Rad, Hercules, CA). Antibody was immobilized to the surface of general amine coupling (“GLC″ or “GLM”) Chips (Bio-Rad, Hercules, CA). […] Antigen (ranging from 1.23 nM to 100 nM) was typically run sequentially with association times of 2-4 minutes and dissociation times of 3-120 minutes grouped with the PROTEON™ Manager Software (v3.1.0.6 (Bio-Rad, Hercules, CA)) and fitted using a 1:1 Langmuir binding model. Surfaces were regenerated between analyte queries using 0.85% Phosphoric Acid, 0.5% SDS, and 0.1N NaOH.

The target of assay [10] is T2, PACAP27 (Pituitary Adenylate …). The assay is described as above. On the procedure: as §2
The target in assay [11] is T4, VIP (Vasoactive Intestinal Peptide). The assay is described as above.

Numbering of substitutions follows the chain as printed. Read-outs that look alike come from different tables or passages of the source.

B1: Ab10.H5 (antibody, human IgG1, kappa, N297A)
heavy: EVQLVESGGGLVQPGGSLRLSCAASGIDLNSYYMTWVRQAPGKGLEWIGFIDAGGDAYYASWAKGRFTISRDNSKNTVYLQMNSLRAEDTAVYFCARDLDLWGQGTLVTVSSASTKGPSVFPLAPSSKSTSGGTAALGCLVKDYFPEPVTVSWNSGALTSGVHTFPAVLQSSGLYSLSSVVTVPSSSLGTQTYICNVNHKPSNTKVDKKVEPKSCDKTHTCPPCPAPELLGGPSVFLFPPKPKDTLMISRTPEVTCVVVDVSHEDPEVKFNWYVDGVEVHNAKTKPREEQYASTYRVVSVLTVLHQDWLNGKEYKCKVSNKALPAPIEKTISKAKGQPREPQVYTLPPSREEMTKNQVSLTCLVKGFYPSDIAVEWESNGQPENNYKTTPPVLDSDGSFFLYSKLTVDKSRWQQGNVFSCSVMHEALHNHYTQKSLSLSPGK
light: QLTQSPSTLSASVGDRVTITCQSSESVYGNYLAWFQQKPGKAPKFLIYEASKLESGVPSRFSGSGSGTEFTLTISSLQPDDFATYYCAGGDISEGVAFGGGTKVEIKRTVAAPSVFIFPPSDEQLKSGTASVVCLLNNFYPREAKVQWKVDNALQSGNSQESVTEQDSKDSTYSLSSTLTLSKADYEKHKVYACEVTHQGLSSPVTKSFNRGEC
notes: Full-length humanized variant of Ab10
With B1, the “Inhibition of 0.1 nM PACAP38-induced PAC1-R mediated cAMP increase IC50 (pM)” value in assay [1] was determined as 22.7 pM. The “Inhibition of 1 nM PACAP27-induced PAC1-R mediated cAMP increase IC50 (pM)” value in assay [2] was determined as 733 pM. Further, the binding result in [3] is “no binding (tested: about 70 nM)”.

B2: Ab10.H2 (antibody, human IgG1, kappa, N297A)
heavy: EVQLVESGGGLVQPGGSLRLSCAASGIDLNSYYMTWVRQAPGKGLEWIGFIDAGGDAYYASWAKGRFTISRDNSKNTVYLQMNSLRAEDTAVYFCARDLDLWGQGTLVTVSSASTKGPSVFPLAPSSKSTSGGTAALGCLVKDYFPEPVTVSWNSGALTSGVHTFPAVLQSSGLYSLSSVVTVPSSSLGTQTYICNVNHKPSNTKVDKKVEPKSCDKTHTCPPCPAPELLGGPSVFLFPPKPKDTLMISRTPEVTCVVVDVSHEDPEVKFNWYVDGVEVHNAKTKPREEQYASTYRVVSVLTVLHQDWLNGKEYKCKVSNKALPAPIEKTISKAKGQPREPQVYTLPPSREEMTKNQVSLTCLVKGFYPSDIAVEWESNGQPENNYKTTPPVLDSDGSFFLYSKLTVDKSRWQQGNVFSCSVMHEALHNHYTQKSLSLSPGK
light: AVLTQSPSTLSASVGDRVTITCQSSESVYGNYLAWFQQKPGKAPKFLIYEASKLESGVPSRFSGSGSGTEFTLTISSLQPDDFATYYCAGGDISEGVAFGGGTKVEIKRTVAAPSVFIFPPSDEQLKSGTASVVCLLNNFYPREAKVQWKVDNALQSGNSQESVTEQDSKDSTYSLSSTLTLSKADYEKHKVYACEVTHQGLSSPVTKSFNRGEC
notes: as for B1
With B2, the “Inhibition of 0.1 nM PACAP38-induced PAC1-R mediated cAMP increase IC50 (pM)” value in assay [1] turned out to be 21.3 pM. In addition, the “Inhibition of 1 nM PACAP27-induced PAC1-R mediated cAMP increase IC50 (pM)” value in assay [2] amounted to 466 pM. For the same molecule, the results for the Kd in assay [4], in [5] and in assay [6] were 230 nM, 0.022 nM and 0.078 nM, respectively. Also, the koff (commonly the first-order rate constant of dissociation) in [4] was 0.046 s⁻¹; in [5], 1.4e-05 s⁻¹; in assay [6], 1.7e-05 s⁻¹. Moreover, the kon – broadly, the rate constant with which the complex forms – is 200000 M⁻¹ s⁻¹ in [4], 630000 M⁻¹ s⁻¹ in assay [5] and 210000 M⁻¹ s⁻¹ in [6]. Also, the binding result in assay [3] is reported as “no binding (tested: about 70 nM)”.

B3: Ab10.H4 (antibody, human IgG1, kappa, N297A)
heavy: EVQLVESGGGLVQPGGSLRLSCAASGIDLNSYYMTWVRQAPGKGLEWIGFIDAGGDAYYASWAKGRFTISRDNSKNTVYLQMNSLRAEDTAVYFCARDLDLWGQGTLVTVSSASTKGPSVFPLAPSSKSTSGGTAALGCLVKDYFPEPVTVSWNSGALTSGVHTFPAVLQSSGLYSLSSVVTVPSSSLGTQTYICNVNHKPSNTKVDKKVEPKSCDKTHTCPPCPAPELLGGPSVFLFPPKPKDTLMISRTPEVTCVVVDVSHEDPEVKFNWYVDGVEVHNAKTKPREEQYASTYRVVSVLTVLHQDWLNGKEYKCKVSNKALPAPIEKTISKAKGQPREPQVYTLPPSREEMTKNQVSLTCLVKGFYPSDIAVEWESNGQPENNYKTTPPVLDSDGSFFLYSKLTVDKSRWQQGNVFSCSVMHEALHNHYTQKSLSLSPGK
light: DIVLTQSPSTLSASVGDRVTITCQSSESVYGNYLAWFQQKPGKAPKFLIYEASKLESGVPSRFSGSGSGTEFTLTISSLQPDDFATYYCAGGDISEGVAFGGGTKVEIKRTVAAPSVFIFPPSDEQLKSGTASVVCLLNNFYPREAKVQWKVDNALQSGNSQESVTEQDSKDSTYSLSSTLTLSKADYEKHKVYACEVTHQGLSSPVTKSFNRGEC
notes: as for B1
Turning to B3, the “Inhibition of 0.1 nM PACAP38-induced PAC1-R mediated cAMP increase IC50 (pM)” value in [1] is 22.8 pM. For the same molecule, in [2], the “Inhibition of 1 nM PACAP27-induced PAC1-R mediated cAMP increase IC50 (pM)” value amounted to 329 pM. Besides, the Kd (usually the free concentration of one partner at which half of the binding sites on the other are occupied at equilibrium, for simple one-to-one binding) in assay [4] was 98 nM; in [5] it was not above 0.019 nM; in [6], 0.093 nM. Also, the koff was 0.015 s⁻¹ in assay [4], not above 1e-05 s⁻¹ in assay [5] and 1.7e-05 s⁻¹ in assay [6]. Besides, the values for the kon in [4], in assay [5] and in assay [6] were 150000 M⁻¹ s⁻¹, 530000 M⁻¹ s⁻¹ and 190000 M⁻¹ s⁻¹, respectively. The binding result in [3] is listed as “no binding (tested: about 70 nM)”.

B4: Ab21.H4 (antibody, human IgG1, kappa, N297A)
heavy: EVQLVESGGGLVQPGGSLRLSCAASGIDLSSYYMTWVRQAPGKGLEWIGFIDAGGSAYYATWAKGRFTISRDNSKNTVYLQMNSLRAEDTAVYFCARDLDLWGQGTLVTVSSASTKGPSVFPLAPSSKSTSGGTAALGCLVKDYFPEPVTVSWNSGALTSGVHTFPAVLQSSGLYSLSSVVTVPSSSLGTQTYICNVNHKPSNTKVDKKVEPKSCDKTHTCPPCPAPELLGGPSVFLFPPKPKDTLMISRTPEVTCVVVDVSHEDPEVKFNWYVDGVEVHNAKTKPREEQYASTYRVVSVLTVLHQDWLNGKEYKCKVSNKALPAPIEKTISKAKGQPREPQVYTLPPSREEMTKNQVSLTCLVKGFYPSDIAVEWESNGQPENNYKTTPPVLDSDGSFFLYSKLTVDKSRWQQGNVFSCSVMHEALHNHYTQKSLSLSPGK
light: B3 light with Q24K, N32D, F47Q, E51D, K54T, E56A, D93Y, I94V, E96A
notes: Full-length humanized variant of Ab21
Turning to B4, in [1], the “Inhibition of 0.1 nM PACAP38-induced PAC1-R mediated cAMP increase IC50 (pM)” value came to 83.4 pM. Besides, in assay [2], the “Inhibition of 1 nM PACAP27-induced PAC1-R mediated cAMP increase IC50 (pM)” value was determined as 275 pM. Further, the “Inhibition of 5 nM PACAP38-induced human VPAC1-R mediated cAMP increase IC50 (pM)” value in assay [7] was 2830 pM. Besides, in [8], the “Inhibition of 1 nM PACAP38-induced human VPAC2-R mediated cAMP increase IC50 (pM)” value was 2880 pM. In [9], this molecule came in with a Kd not above 0.0238 nM, a koff not above 1e-05 s⁻¹ and a kon of 420000 M⁻¹ s⁻¹. In assay [10], this molecule showed a Kd not above 0.0351 nM, a dissociation rate constant (koff) not above 1e-05 s⁻¹ and a kon of 285000 M⁻¹ s⁻¹. Moreover, in assay [11], the Kd worked out at 523 nM, the koff came out at 0.0289 s⁻¹ and the kon worked out at 55300 M⁻¹ s⁻¹.

B5: Ab21.H3 (antibody, human IgG1, kappa, N297A)
heavy: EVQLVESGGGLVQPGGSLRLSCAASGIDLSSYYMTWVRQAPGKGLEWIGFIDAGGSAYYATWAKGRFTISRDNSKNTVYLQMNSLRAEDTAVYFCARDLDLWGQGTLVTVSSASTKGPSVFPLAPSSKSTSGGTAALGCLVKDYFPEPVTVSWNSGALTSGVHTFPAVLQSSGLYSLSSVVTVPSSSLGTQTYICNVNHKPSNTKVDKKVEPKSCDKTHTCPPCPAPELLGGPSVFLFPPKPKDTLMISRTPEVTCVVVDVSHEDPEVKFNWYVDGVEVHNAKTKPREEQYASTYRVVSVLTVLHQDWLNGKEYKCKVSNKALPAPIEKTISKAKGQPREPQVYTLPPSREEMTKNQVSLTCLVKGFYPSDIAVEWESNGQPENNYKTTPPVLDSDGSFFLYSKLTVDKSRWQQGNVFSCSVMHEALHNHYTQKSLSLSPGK
light: B3 light with V3Q, Q24K, N32D, F47Q, E51D, K54T, E56A, D93Y, I94V, E96A
notes: as for B4
B5: the “Inhibition of 0.1 nM PACAP38-induced PAC1-R mediated cAMP increase IC50 (pM)” value in assay [1] was 65.3 pM. For the same molecule, the “Inhibition of 1 nM PACAP27-induced PAC1-R mediated cAMP increase IC50 (pM)” value in assay [2] turned out to be 318 pM. For the same molecule, in [7], the “Inhibition of 5 nM PACAP38-induced human VPAC1-R mediated cAMP increase IC50 (pM)” value worked out at 2520 pM. Also, the “Inhibition of 1 nM PACAP38-induced human VPAC2-R mediated cAMP increase IC50 (pM)” value in assay [8] came out at 1530 pM. In [9], the Kd was not above 0.0223 nM, the koff was not above 1e-05 s⁻¹ and the kon came out at 449000 M⁻¹ s⁻¹. In addition, in [10], the Kd is not above 0.0311 nM, the koff was not above 1e-05 s⁻¹ and the kon stood at 322000 M⁻¹ s⁻¹. In assay [11], this molecule registered a dissociation constant (Kd) of 424 nM, a koff of 0.0249 s⁻¹ and an association rate constant (kon) of 58700 M⁻¹ s⁻¹.

B6: Ab23 (antibody, human IgG1, kappa, N297A, V domains shown)
VH: QSVEESGGRLVTPGTPLTLTCTVSGFSLNNYAMSWVRQAPGKGLEWIGIMGVNDITYYASWAKGRFTISKTSTTVDLKMTSLTTEDTATYFCTREIRDDGDSSDKLWGPGTLVTVSS
VL: AIKMTQTPSSVSAAVGGTVTINCQASEDIYTNLAWYQQKPGQPPNLLIYDASDLASGVPSRFSGSGDGTQFTLTISAVQCEDAATYYCQGVAWSSNTGYGSAFGGGTEVVVKR
notes: Full-length anti-PACAP antibody; rabbit/human chimeric
With B6, the binding result in assay [3] is reported as “no binding (tested: about 70 nM)”.
